{"source": "patent US20240327522A1", "about": "(Genentech, published 2024)", "assay_in_all_cases": "SPR, Biacore T200, antibody captured on Protein A chip, 3-fold analyte series 0-100 nM, 37 C, 1:1 model; average ± as printed", "key": {"[1]": {"molecular_target": "T1, recombinant rat αvβ8 protein (PARS-22180) (rat, UniProt F1LZX9 31-987; A0A0G2JVU1 43-682)", "T1 construct": "also called rat.aVb8", "protocol": "(§1) The ability of the anti-αVP8-65 to bind to different αVβ8 proteins was assessed using SPR measurements (Karlsson et al. 1991) on a Biacore™ T200 (Cytiva Life Sciences; Marlborough, MA) instrument (Safsten et al. 2006). anti-αV08-65 was first captured on a Biacore™ Protein A biosensor chip (Cytiva Life Sciences) to achieve approximately 60 response units. Binding measurements were performed using a running buffer composed of 10 mM HEPES (pH 7.4), 150 mM NaCl, 0.5 mM CaCl₂), 0.5 mM MgCl₂, and 0.005% Surfactant P20 (Cytiva Life Sciences). A 3-fold dilution series of the analyte proteins (range, 0-100 nM in running buffer) was injected into the Biacore™ T200. All injections were performed over 180 seconds, with a dissociation time of 1200 seconds, at a flow rate of 100 μL/minute and a temperature of 37° C. Between sample injections, 10 mM glycine (pH 1.5) was injected to regenerate the sensor chip (twice, over 30 seconds at 10 μL/minute for each injection). To determine the binding kinetics and affinity constants of anti-αVP8-65 to the various species of the αVβ8 protein, the signal from the reference flow cell (FC1, with only protein A on the surface) was “double referenced” by subtracting the signal observed after injecting the sample over FC1, followed by subtracting the signal observed after injecting only running buffer. The kinetic constants were calculated using non-linear regression fitting of the data, according to a 1:1 Langmuir binding model, using Biacore™ Evaluation Software (Cytiva Life Sciences) for anti-αVP8-65 binding to recombinant human, cynomolgus monkey, mouse, and rat αVβ8 proteins."}, "[2]": {"molecular_target": "T2, recombinant human αvβ8 protein (PARS-17102) (human)", "T2 construct": "also called hu.aVb8.17102; not shown: C-terminal acid/basic coils and any purification tags", "T2 alpha": "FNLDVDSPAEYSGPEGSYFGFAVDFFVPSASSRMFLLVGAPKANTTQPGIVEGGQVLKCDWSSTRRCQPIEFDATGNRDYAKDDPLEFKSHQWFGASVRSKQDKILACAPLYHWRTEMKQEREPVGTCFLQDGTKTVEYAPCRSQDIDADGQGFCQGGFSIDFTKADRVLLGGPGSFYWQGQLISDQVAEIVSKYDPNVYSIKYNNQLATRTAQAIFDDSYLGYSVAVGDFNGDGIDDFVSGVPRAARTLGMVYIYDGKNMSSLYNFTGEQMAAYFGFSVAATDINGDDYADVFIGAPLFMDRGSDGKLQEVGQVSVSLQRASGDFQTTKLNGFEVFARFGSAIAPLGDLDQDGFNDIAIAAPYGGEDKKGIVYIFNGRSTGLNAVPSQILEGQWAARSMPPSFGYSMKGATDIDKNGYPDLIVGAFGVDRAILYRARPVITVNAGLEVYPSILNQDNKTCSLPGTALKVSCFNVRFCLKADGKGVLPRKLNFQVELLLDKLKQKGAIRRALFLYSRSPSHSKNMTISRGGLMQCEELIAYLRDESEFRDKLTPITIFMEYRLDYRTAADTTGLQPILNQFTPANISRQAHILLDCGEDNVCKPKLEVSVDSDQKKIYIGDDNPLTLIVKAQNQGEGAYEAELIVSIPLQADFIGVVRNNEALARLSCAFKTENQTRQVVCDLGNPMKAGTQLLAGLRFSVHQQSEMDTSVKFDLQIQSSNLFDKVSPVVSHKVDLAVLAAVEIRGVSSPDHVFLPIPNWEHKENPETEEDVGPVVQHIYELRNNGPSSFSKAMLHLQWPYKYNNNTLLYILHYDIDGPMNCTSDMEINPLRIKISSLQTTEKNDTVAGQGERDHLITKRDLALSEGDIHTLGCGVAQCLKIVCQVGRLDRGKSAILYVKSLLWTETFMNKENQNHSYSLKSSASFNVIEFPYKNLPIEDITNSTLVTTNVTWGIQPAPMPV", "T2 beta": "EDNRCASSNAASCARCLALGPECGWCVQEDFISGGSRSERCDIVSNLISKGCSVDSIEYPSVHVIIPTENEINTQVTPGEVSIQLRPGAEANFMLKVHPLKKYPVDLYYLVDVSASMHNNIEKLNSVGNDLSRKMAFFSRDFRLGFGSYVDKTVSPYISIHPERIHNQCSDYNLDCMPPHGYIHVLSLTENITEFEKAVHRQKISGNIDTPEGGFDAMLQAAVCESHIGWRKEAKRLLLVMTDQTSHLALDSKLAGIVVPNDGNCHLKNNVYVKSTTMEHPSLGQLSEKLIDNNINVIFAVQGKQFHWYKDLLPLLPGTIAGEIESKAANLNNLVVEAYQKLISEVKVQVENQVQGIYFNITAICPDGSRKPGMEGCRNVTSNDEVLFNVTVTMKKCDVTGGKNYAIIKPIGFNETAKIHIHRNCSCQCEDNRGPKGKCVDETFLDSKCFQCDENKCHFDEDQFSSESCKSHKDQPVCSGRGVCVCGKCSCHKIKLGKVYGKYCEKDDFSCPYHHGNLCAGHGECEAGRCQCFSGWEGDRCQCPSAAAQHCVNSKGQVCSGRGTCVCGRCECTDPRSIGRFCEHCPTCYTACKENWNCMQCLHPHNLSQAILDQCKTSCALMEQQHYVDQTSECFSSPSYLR", "protocol": "as §1"}, "[3]": {"molecular_target": "T3, recombinant cynomolgus monkey αvβ8 protein (PARS-19393) (cynomolgus monkey, UniProt A0A2K5WCD3 31-992; G7P0S0 43-684)", "T3 construct": "also called cyno.aVb8-19393; cyno.aVb8", "protocol": "as §1"}, "[4]": {"molecular_target": "T4, recombinant mouse αvβ8 protein (PARS-17103) (murine, UniProt P43406 31-988; Q0VBD0 43-681, limits assumed)", "T4 construct": "Made in house; also called mu.aVb8.17103", "T4 sequence (P43406 31-988 limits assumed, chain 1 of 2)": "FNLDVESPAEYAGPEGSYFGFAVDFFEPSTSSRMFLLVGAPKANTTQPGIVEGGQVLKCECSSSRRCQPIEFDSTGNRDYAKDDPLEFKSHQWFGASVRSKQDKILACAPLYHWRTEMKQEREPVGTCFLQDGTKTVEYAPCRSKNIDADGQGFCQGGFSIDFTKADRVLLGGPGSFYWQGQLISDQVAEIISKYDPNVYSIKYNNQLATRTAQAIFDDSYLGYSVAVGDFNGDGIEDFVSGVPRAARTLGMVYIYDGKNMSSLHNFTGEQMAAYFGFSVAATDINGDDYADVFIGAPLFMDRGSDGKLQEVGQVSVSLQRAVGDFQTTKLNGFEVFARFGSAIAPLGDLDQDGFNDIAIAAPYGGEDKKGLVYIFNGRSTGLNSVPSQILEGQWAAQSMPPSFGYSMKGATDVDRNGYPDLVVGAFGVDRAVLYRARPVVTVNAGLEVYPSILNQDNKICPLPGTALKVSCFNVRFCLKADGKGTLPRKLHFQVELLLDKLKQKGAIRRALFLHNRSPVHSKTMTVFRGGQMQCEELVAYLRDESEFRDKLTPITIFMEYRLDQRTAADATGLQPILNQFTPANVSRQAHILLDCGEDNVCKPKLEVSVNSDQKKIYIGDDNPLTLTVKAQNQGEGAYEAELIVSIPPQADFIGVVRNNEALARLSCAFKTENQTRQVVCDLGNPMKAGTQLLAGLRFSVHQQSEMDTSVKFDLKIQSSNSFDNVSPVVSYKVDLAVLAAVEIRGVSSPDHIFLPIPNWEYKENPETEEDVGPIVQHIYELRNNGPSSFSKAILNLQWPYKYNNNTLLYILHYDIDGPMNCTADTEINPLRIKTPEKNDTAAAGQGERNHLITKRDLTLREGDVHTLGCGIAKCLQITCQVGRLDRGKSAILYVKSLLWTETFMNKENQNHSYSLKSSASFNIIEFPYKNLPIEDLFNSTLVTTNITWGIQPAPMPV", "T4 sequence (Q0VBD0 43-681 limits assumed, chain 2 of 2)": "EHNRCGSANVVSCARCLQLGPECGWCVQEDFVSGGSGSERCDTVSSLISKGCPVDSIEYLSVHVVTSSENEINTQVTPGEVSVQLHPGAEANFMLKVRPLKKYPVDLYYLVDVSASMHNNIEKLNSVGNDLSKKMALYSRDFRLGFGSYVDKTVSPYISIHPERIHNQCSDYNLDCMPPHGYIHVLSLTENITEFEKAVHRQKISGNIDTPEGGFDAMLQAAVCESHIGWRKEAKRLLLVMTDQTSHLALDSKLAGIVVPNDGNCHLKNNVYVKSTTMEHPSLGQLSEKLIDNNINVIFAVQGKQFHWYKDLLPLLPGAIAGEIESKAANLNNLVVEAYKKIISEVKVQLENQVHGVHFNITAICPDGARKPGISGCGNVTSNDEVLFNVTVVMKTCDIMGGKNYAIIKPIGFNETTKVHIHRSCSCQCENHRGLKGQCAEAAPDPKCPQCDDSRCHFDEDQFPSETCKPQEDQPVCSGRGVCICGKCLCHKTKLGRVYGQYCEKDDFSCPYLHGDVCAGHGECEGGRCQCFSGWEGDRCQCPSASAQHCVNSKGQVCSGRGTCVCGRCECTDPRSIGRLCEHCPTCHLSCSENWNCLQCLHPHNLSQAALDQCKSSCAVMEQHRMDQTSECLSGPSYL", "protocol": "as §1"}}}
{"binder": "Hu.aVb8-65.H15L2 (aVb8-65.H15L2.hIgG1.LALAPG) (antibody, V domains shown, Human IgG1 LALAPG; also called PARS-20475-65 (IH) aVb8-65.H15L2.hIgG1.LALAPG; humanized αvβ8-65) VH: EVQLLESGGGLVQPGGSLRLSCAASGIDLSNYAMIWVRQAPGKGLEWVGIISSSDRIWYASWVKGRFTISRDNSKNTLYLQMNSLRAEDTAVYYCSRSVSNSYFDGWNLWGQGTLVTVSS VL: DIQMTQSPSSVSASVGDRVTITCQASENINSLLAWYQQKPGKAPKLLIYRASTLASGVPSRFSGSGSGTDFTLTISSLQPEDFATYYCQSNYGFTGSGAFFYGFGQGTKVEIKR", "values": [{"measurement": "Kd", "setting": "[1]", "result": 1, "unit": "nM"}, {"measurement": "koff", "setting": "[1]", "result": 0.00011, "unit": "s⁻¹"}, {"measurement": "kon", "setting": "[1]", "result": 104000, "unit": "M⁻¹ s⁻¹"}, {"measurement": "Kd", "setting": "[2]", "result": 0.5, "unit": "nM"}, {"measurement": "koff", "setting": "[2]", "result": "8.8e-05", "unit": "s⁻¹"}, {"measurement": "kon", "setting": "[2]", "result": 175000, "unit": "M⁻¹ s⁻¹"}, {"measurement": "Kd", "setting": "[3]", "result": 0.7, "unit": "nM"}, {"measurement": "koff", "setting": "[3]", "result": 0.00013, "unit": "s⁻¹"}, {"measurement": "kon", "setting": "[3]", "result": 180000, "unit": "M⁻¹ s⁻¹"}, {"measurement": "Kd", "setting": "[4]", "result": 0.94, "unit": "nM"}, {"measurement": "koff", "setting": "[4]", "result": 0.000108, "unit": "s⁻¹"}, {"measurement": "kon", "setting": "[4]", "result": 140000, "unit": "M⁻¹ s⁻¹"}]}
